Reference: paper PMC8514705

Molecular target: recombinant DR4 extracellular domain (UniProt O00220)
Sequence (O00220 24-239): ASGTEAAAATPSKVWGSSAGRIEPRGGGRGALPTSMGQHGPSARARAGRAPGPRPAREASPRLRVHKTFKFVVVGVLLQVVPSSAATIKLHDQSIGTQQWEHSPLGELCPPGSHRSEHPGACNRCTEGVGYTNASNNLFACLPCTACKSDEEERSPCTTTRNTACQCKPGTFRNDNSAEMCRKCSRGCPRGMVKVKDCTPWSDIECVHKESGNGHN

decrease of surface DR4 on HCT116 and HT-29 cells with 1,000 ng/ml TRAIL, time course, flow cytometry: 90%
Substance: TRAIL (tumor necrosis factor-associated ligand inducing apoptosis), recombinant, amino acid residues 114-280 (from UniProt P50591 114-280)
